{"source": "patent US12135332B2", "about": "“Mutant human estrogen receptor-α and methods of use thereof” (Case Western Reserve University, priority 2018, dated 2024)", "molecules": {"B1": {"name": "WT: recombinant wild-type human ERα segment with DBD and LBD, residues E181-P552 (protein)", "chain": "ETRYCAVCNDYASGYHYGVWSCEGCKAFFKRSIQGHNDYMCPATNQCTIDKNRRKSCQACRLRKCYEVGMMKGGIRKDRRGGRMLKHKRQRDDGEGRGEVGSAGDMRAANLWPSPLMIKRSKKNSLALSLTADQMVSALLDAEPPILYSEYDPTRPFSEASMMGLLTNLADRELVHMINWAKRVPGFVDLTLHDQVHLLECAWLEILMIGLVWRSMEHPGKLLFAPNLLLDRNQGKCVEGMVEIFDMLLATSSRFRMMNLQGEEFVCLKSIILLNSGVYTFLSSTLKSLEEKDHIHRVLDKITDTLIHLMAKAGLTLQQQHQRLAQLLLILSHIRHMSNKGMEHLYSMKCKNVVPLYDLLLEMLDAHRLHAP"}}, "molecular_target": "ERE-DNA", "assay": "Fluorescence anisotropy DNA-binding assay", "conditions": "6-FAM-labeled ERE-DNA 20 nM, E2-bound hERα^CDE; read-out: DNA-binding affinity Kd", "from_the_text": "FIGS. 8(a)-(e) are graphs relating to the purification and characterization of recombinant hERα. […] FIGS. 8(b) and (c) show the purification of hERα^CDE, specifically size exclusion chromatography of hERα^CDE in the absence (b) or presence (c) of ERE-DNA. Shown are the absorbance at 260 nm and 280 nm of hERα^CDE in the presence of estradiol and a coactivator TIF2 peptide. […] Data of 2.8-μM hERα^CDE in the presence of E2 were used as a saturation level and free 20-nM DNA data as a baseline. […] The binding of the hERα to a coactivator TIF2 peptide (sequence […]) (SEQ ID NO: 2) in the presence of E2 and ERE-DNA was measured by surface plasmon resonance (SPR). […]\nTo further assess the impact of this substitution on the receptor's ability to bind ERE-DNA, a biochemical DNA-binding assay was performed by detecting fluorescence anisotropy of 6-carboxyfluorescein-labeled ERE-DNA in the presence of increasing concentrations of the E2-bound hERα^CDE. […]\nThe fluorescence-conjugated double-strand ERE-DNA was prepared by annealing 6-FAM (6-carboxyfluorescein) 5′-labeled strands (5′-[…]-3′ (SEQ ID NO: 44) and 5′-[…]-3′ (SEQ ID NO: 45); IDT, Inc) in a buffer containing 10 mM CHES (pH 9.5), 50 mM KCl, 50 mM NaCl, 4 mM MgCl2, 50 mM arginine, 50 mM glutamic acid, 5 mM TCEP, 5% glycerol with 10 μM ZnCl2, and 10 μM E2. […]", "data": [{"molecule": "B1", "values": [{"measurement": "Kd", "value": 9.2, "unit": "nM"}]}]}
